# Laboratory results: patent WO2021180110A1
# Target: COVID-19 Spike-RBD-his fusion protein (novel coronavirus (COVID-19)), P0DTC2
# Conditions: remark: other sources report otherwise
binder,measurement,value
"CD147-his fusion protein, P35613 22-205 (receptor) AAGTVFTTVEDLGSKILLTCSLNDSATEVTGHRWLKGGVVLKEDALPGQKTEFKVDSDDQWGEYSCVFLPEPMGTANIQLHGPPRVKAVKSSEHINEGETAMLVCKSESVPPVTDWAWYKITDSEDKALMNGSESRFFVSSSQGRSELHIENLNMEADPGQYRCNGTSSKGSDQAIITLRVRSH",EC50,68.8 µg/mL
